Assays:
EPO receptor on cells = target: T1, EPO receptor on cells (human, UniProt P19235 25-508); experiment: cell-based or functional assay
T1 sequence (looked up): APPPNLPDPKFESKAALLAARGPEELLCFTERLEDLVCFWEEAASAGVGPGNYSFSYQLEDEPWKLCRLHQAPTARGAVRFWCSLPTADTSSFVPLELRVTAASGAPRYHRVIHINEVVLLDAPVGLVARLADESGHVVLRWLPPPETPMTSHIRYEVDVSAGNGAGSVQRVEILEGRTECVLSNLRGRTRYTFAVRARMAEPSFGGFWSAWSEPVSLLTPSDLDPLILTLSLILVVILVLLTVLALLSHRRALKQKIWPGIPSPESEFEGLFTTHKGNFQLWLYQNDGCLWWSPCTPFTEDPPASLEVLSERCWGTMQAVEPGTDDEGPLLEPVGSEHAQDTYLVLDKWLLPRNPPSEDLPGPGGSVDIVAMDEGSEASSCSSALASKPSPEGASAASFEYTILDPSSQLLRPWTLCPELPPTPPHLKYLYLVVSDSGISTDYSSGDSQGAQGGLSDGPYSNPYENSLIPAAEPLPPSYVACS

human glycophorin A [1] = target: T2, human glycophorin A (human, UniProt P02724 20-150); experiment: column 'Binding strength' of Table 1, format scFv; method not stated
T2 construct: Native protein on human red blood cells (and TF-1 cells); also called GYPA; huGYPA
T2 sequence: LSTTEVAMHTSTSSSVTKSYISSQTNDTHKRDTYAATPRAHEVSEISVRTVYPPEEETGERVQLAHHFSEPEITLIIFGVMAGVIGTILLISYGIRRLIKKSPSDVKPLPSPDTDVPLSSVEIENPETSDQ

human glycophorin A [2] = target: T2, human glycophorin A; experiment: column 'Binding strength' of Table 1, format nanobody; method not stated

## Darbepoetin (Amgen) (ligand)
EPO receptor on cells
  TF-1 cell proliferation, EC50 relative to epoetin alpha: 14.7 fold

B1: 1C3 scFv (scFv)
scFv: EVRLLESGGGPVQPGGSLKLSCAASGFDFSRYWMNWVRRAPGKGLEWIGEINQQSSTINYSPPLKDKFIISRDNAKSTLYLQMNKVRSEDTALYYCARLSLTAAGFAYWGQGTLVTVSAGGGSSGGSGSSGGSSSGGDIVMSQSPSSLAVSVGEKVSMSCKSSQSLFNSRTRKNYLTWYQQKPGQSPKPLIYWASTRESGVPDRFTGSGSGTDFTLTISSVQAEDLADYYCKQSYNLRTFGGGTKLEIK
Human glycophorin A [1]
  Kd: 30 nM

B2: IH4v1 nanobody (VHH)
VHH: QVQLQESGGGSVQAGGSLRLSCVASGYTDSTYCVGWFRQAPGKEREGVARINTISGRPWYADSVKGRFTISQDNSKNTVYLQMNSLKPEDTAIYYCTLTTANSRGFCSGGYNYKGQGTQVTVS
notes: Camelid single-domain antibody with the added Thr118
Human glycophorin A [2]
  Kd: 30 nM

From patent US20220098261A1 (Harvard, published 2022)
